# Measurements: patent US20250179151A1, “SPIKE FURIN CLEAVAGE IS A SARS-COV-2 TARGETING STRATEGY TO BREAK THE CHAIN OF INFECTION CYCLE” (University of Virginia Patent Foundation, priority 2022, published 2025)
# “Also recorded” adds a separate entry of the source. Peptide text beside a SMILES is read from it. * marks the point of attachment. Cbz = O=C(OCc1ccccc1)*
# What was measured:
# spike S1/S2 cleavage = format: cell-based, SARS-CoV-2
# [1] = system: pseudoviral spike S0 and S2; format: cell-based, SARS-CoV-2
# spike S0 = format: cell-based, SARS-CoV-2
# furin [2] = target: T1, furin (Homo sapiens, UniProt P09958); format: biochemical; conditions: peptide inserted in rDR5-IgG4-Fc; 10 ng recombinant furin
# spike cleavage at S1/S2 = format: cell-based, SARS-CoV-2
# 293-ACE2 cells = format: cell-based; conditions: spike transfected 293-ACE2 cells, 24 hours
# [3] = target: T2, IgG4-Fc tagged rFOLR1 antigen (UniProt P15328 25-233); experiment: ELISA, IgG4-Fc tagged rFOLR1 coated, detection with anti-IgG1-Fc HRP
# T2 construct: extracellular domain; also called recombinant IgG4-Fc FOLR1
# [4] = system: 293-ACE2 and RFP-stable HCC-1806 cells; experiment: Syncytia in Spike-EGFP transfected co-culture of 293-ACE2 and HCC-1806 cells; format: cell-based; conditions: co-cultures, 100 μg antibody
# furin [5] = target: T1, furin; experiment: BLI binding kinetics against immobilized biotinylated furin; conditions: compared to cFuG1
# Procedure: (§1) FIGS. 2A-2C. Furin inhibitory function and flexibility of Fc-extended FuG1 peptide strategy. (FIG. 2A) The binding kinetics of immobilized biotinylated furin against indicated farletuzumab-FuG1, farletuzumab-cFuG1, and Farletuzumab-IgG1 were measured using BLI. (FIGS. 2B and 2C) FuG1 and cFuG1 antibodies were tested using a competitive inhibitory furin assay kit, which measures fluorescent signal as an indicator of the protease activity kinetics.
# Binding studies by BioLayer Interferometry (BLI). Binding measurements were performed using Bio-Layer Interferometry on FortéBio Red Octet 96 instrument (Pall) as described in Shivange et al., 2018. Biotin-Streptavidin based sensors were employed for the studies. Recombinant Fc linked DR5 variants were biotinylated using EZ-Link Sulfo-NHS—SS-Biotin (Thermo Scientific 21331) following the manufacturer's instructions. Unreacted Sulfo-NHS—SS-Biotin reaction was quenched by 50 mM Tris-Cl pH 7.4 and removed via dialyzing against PBS. For binding analysis biotinylated antigen (1 μg/mL) were immobilized on streptavidin (SA) biosensors (Pall) for 300 sec to ensure saturation. Associate and dissociation reactions were set in 96-well microplates filled with 200 μL of unbiotinylated DR5 agonist for 900 seconds. All interactions were conducted at 37° C. in PBS buffer containing 2 mg/ml BSA. These binding observations were also confirmed by biotinylating the agonist antibodies and probed against unbiotinylated DR5-Fc variants. Kinetic parameters (KON and KOFF) and affinities (KD) were analyzed using Octet data analysis software, version 9.0 (Pall).
# To confirm furin binding and competing function, farletuzumab-FuG1 and farletuzumab-cFuG1 were expressed in the presence of furin inhibitors. Purified antibodies were analyzed for their Fc-extended peptide binding to biotinylated furin using BLI. […] The latter indicated a potential higher competitive furin occupancy time of FuG1 peptide with the increased antibody concentration (Hoare et al., 2020).
# spike S0 and S2 = format: cell-based, SARS-CoV-2
# furin [6] = target: T1, furin; experiment: Furin protease activity assay (fluorogenic substrate); format: biochemical; conditions: particularly at higher doses; compared with farletuzumab-cFuG1
# Procedure: as §1
# Furin protease activity assay. Different concentrations of farletuzumab-FuGi, farletuzumab-cFuGi (25-250 ng) or furin assay buffer (negative control) were pre-incubated with 25 ng of furin (50 μl, 0.5 ng/μl in furin assay buffer) in a total reaction volume of 100 μl for 10 minutes at room temperature. […] The fluorescence intensity of the reaction mixture was monitored at excitation wavelength of 380 nm and detection of emission at wavelength 460 nm using 96 well microplate reader (BioTek Instruments Inc, USA). […] For kinetic study, fluorescence was measured immediately after adding the protease substrate and data was recorded every 1 minute for 15 min at Ex/Em=380 nm/460 nm.
# To confirm furin binding and competing function, farletuzumab-FuG1 and farletuzumab-cFuG1 were expressed in the presence of furin inhibitors. Purified antibodies were analyzed for their Fc-extended peptide binding to biotinylated furin using BLI. […]
# T1 sequence (P09958 108-794): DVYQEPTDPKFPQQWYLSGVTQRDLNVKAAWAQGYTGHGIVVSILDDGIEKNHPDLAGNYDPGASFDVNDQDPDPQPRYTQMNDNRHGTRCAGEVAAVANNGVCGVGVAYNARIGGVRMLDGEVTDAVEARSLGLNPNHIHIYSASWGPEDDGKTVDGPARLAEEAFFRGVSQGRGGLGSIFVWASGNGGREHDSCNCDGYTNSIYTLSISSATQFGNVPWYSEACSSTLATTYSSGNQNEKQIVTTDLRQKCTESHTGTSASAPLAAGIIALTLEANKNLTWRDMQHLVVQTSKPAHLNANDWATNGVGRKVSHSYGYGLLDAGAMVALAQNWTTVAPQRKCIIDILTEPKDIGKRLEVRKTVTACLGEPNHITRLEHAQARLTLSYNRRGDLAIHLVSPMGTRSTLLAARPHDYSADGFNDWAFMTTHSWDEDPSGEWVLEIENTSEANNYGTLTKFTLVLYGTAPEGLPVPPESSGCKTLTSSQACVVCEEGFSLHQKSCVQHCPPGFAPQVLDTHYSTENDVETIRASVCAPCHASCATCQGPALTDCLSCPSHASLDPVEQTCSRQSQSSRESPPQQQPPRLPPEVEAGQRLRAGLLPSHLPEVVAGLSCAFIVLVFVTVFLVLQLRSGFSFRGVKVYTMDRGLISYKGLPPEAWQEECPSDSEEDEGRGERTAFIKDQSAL
# T2 sequence (P15328 25-233 limits assumed): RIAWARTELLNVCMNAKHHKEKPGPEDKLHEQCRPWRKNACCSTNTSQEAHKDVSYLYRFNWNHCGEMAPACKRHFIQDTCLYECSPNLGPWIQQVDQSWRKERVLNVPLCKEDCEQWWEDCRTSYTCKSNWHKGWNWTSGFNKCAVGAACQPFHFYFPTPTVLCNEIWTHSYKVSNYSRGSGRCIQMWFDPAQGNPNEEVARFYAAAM
molecule,measurement,setting,value
"C[C@H]1CCC/C=C/[C@@H]2C[C@H](O)C[C@H]2[C@H](O)/C=C/C(=O)O1 [Bfa, Brefeldin-A]",spike S1/S2 cleavage,spike S1/S2 cleavage,completely inhibited
CC(C)C[C@@H](C=O)NC(=O)[C@H](CC(C)C)NC(=O)[C@H](CC(C)C)NC(=O)OCc1ccccc1 [MG132] (Cbz-Leu-Leu-Leu-aldehyde),pseudoviral S2 fragment generation,[1],remained inhibited
same,pseudoviral spike S0 destabilization,[1],rescued spike S0 destabilization
same,furin processing of WT and ΔRRAR spike,spike S0,did not interfere
same,rescue of spike S0 loss,spike S0,partial rescue of spike S0 loss
same,total spike S0 signal,spike S0,at least two-fold higher; also recorded: significantly increased
EGGGSGRERKARGGCPGS [FuG1 peptide],cleavage by recombinant furin in vitro,furin [2],not cleaved
"6.29-IgG1: ACE-2-RBD neutralizing antibody (Rogers et al., 2020); SEQ ID NOs: 11 and 15 (protein) light: DIQLTQSPSSLSASVGDRVTITCRASQTASSYLNWYQQKPGKAPNLLIYAASSLQSGVPSRFSGSGSVTDFTLTISSLQPEDFATYYCQQSYSTPPTFGQGTKVDIKRTVAAPSVFIFPPSDEQLKSGTASVVCLLNNFYPREAKVQWKVDNALQSGNSQESVTEQDSKDSTYSLSSTLTLSKADYEKHKVYACEVTHQGLSSPVTKSFNRGEC heavy: QVQLVQSGSELKKPGASVKVSCKASGYTFATYALNWVRQAPGQGLEWMGWVNTNTGSPTYAQGFTGRFVFSFDTSVSTAYLQIRTLKAEDTAVYYCAVYYYDSGSPGWFDPWGQGTLVTVSSASTKGPSVFPLAPSSKSTSGGTAALGCLVKDYFPEPVTVSWNSGALTSGVHTFPAVLQSSGLYSLSSVVTVPSSSLGTQTYICNVNHKPSNTKVDKKVEPKSCDKTHTCPPCPAPEAAGGPSVFLFPPKPKDTLMISRTPEVTCVVVDVSHEDPEVKFNWYVDGVEVHNAKTKPREEQYNSTYRVVSVLTVLHQDWLNGKEYKCKVSNKALPAPIEKTISKAKGQPREPQVYTLPPSREEMTKNQVSLTCLVKGFYPSDIAVEWESNGQPENNYKTTPPVLDSDGSFFLYSKLTVDKSRWQQGNVFSCSVMHEALHNHYTQKSLSLSLGK",inhibition of spike cleavage at S1/S2,spike cleavage at S1/S2,non-inhibitory
same,syncytia blockade,293-ACE2 cells,significantly more effective; also recorded: significantly effective
"farletuzumab-FuG1 (antibody, also called Farle-FuG1; Farletuzumab-FuG1 antibody) heavy: EVQLVESGGGVVQPGRSLRLSCSASGFTFSGYGLSWVRQAPGKGLEWVAMISSGGSYTYYADSVKGRFAISRDNAKNTLFLQMDSLRPEDTGVYFCARHGDDPAWFAYWGQGTPVTVSSASTKGPSVFPLAPSSKSTSGGTAALGCLVKDYFPEPVTVSWNSGALTSGVHTFPAVLQSSGLYSLSSVVTVPSSSLGTQTYICNVNHKPSNTKVDKKVEPKSCDKTHTCPPCPAPEAAGGPSVFLFPPKPKDTLMISRTPEVTCVVVDVSHEDPEVKFNWYVDGVEVHNAKTKPREEQYNSTYRVVSVLTVLHQDWLNGKEYKCKVSNKALPAPIEKTISKAKGQPREPQVYTLPPSREEMTKNQVSLTCLVKGFYPSDIAVEWESNGQPENNYKTTPPVLDSDGSFFLYSKLTVDKSRWQQGNVFSCSVMHEALHNHYTQKSLSLSLPGKEGGGSGRERKARGGCPGS light: DIQLTQSPSSLSASVGDRVTITCSVSSSISSNNLHWYQQKPGKAPKPWIYGTSNLASGVPSRFSGSGSGTDYTFTISSLQPEDIATYYCQQWSSYPYMYTFGQGTKVEIKRTVAAPSVFIFPPSDEQLKSGTASVVCLLNNFYPREAKVQWKVDNALQSGNSQESVTEQDSKDSTYSLSSTLTLSKADYEKHKVYACEVTHQGLSSPVTKSFNRGEC",binding result,[3],binds
farletuzumab-FuG1: anti-FOLR1 farletuzumab with FuG1 Fc-extended peptide (SEQ ID NO: 44) (antibody) heavy: EVQLVESGGGVVQPGRSLRLSCSASGFTFSGYGLSWVRQAPGKGLEWVAMISSGGSYTYYADSVKGRFAISRDNAKNTLFLQMDSLRPEDTGVYFCARHGDDPAWFAYWGQGTPVTVSSASTKGPSVFPLAPSSKSTSGGTAALGCLVKDYFPEPVTVSWNSGALTSGVHTFPAVLQSSGLYSLSSVVTVPSSSLGTQTYICNVNHKPSNTKVDKKVEPKSCDKTHTCPPCPAPEAAGGPSVFLFPPKPKDTLMISRTPEVTCVVVDVSHEDPEVKFNWYVDGVEVHNAKTKPREEQYNSTYRVVSVLTVLHQDWLNGKEYKCKVSNKALPAPIEKTISKAKGQPREPQVYTLPPSREEMTKNQVSLTCLVKGFYPSDIAVEWESNGQPENNYKTTPPVLDSDGSFFLYSKLTVDKSRWQQGNVFSCSVMHEALHNHYTQKSLSLSLPGKEGGGSGRERKARGGCPGS light: DIQLTQSPSSLSASVGDRVTITCSVSSSISSNNLHWYQQKPGKAPKPWIYGTSNLASGVPSRFSGSGSGTDYTFTISSLQPEDIATYYCQQWSSYPYMYTFGQGTKVEIKRTVAAPSVFIFPPSDEQLKSGTASVVCLLNNFYPREAKVQWKVDNALQSGNSQESVTEQDSKDSTYSLSSTLTLSKADYEKHKVYACEVTHQGLSSPVTKSFNRGEC,syncytia load reduced,[4],~30%
same,furin association rate (KON),furin [5],lower
same,furin binding affinity (KD),furin [5],lower
same,"furin dissociation rate (KOFF), fold reduced",furin [5],~10 fold
same,S0 and S2 in co-culture lysates,spike S0 and S2,only partially reduced S2 conversion
same,inhibition of furin protease activity,furin [6],significant inhibition
